Test: soluble on expression in E. coli; label from the status in PepcDB or PDB records

Sequence | soluble on expression in E. coli
MSILAEPKRKQKISIDPQNLTWKNDDQKLSKKLMEKMGWSEGDGLGRNRQGNADSVKLKANTSGRGLGADKMADYDSTWISHHDDFADLLAALNKNKEQEPEQTEEEKNAAAEKISIELKSKSIRRRIHYQKFTRAKDTSNYSDSHKKGILGYGRLKSDNAEEKIEEKTENSSVKSDSSDSQADSQEKKEGNNTVSTLSVGDYFAAKMAALKAKREAAAANQTEVKMEIKTEVEEEESDEEKARRKAEKKERKRLRREQRDKEETLETVETILEVKQEVKEEIIDEEFDEAERKRLKKEKKRLKRLREQQQPENEGAEGGEADEEEIPRKRKKHTEDEH | not soluble
MSILDLTKISKDSTKLQNFVKFERVKTGGLDVYMSEYSWNTKEAGTMSICDVSENTSLDYRSNHQQLLKSWISSTEKIAQLFPTTLRTFQVTPPMIAAILDLETAIPKTCDVLIIQNYVPAEMDRYQESVDQFMEKCHIREGVVLHHEVYTNSPKMFQLDYLSVTHSDWMVPSDLEEMENKIVYLDKSDFYDSDMNQFLRELKSGSSHSRLQILSIQGNSWQNYWDPSDVLEGLNAELWNQTERNQHYFLNAEHRKNFKKIADHFYPDQEDGFGAELEHGVDLSEAFDFLKNDGTRVSVRFDELILQVFVWPNEKPSRKRKAQEQGSIAKRFC | not soluble
MSIQLNGINCFYGAHQALFDITLDCPEGETLVLLGPSGAGKSSLLRVLNLLEMPRSGTLTIAGNHFDFTKTPSDKAIRELRQNVGMVFQQYNLWPHLTVVQNLIEAPCRVLGLTKDQALARAEKLLERLRLKPYSDRYPLHLSGGQQQRVAIARALMMEPQVLLFDEPTAALDPEITAQIVSIIHELAETNITQVIVTHEVEVARKTASRVIYMENGHIVEHGDAGCFAHPQTEAFKNYLSH | not soluble
MSIRSWPAAERPRERLLELGAASLSDAELLAIFLRTGVAGKSAVDLARHLLNQFDGLRSLLDADQPAFTAQLGLGPAKFAQLQAVMEMARRHMAESLRRDSALENPAQVRNYLKAQLRHEPHEVFACLFLDNKHRVMTFEILFRGTINASYVHPRQVVKRALAHNAASLILCHNHPSGITTPSRSDIDLTKRLKEALKLVDVHVLDHVIVGDGEPLSMVEKGLM | not soluble
MSISKDSRIAIIGAGPAGLAAGMYLEQAGFHDYTILERTDHVGGKCHSPNYHGRRYEMGAIMGVPSYDTIQEIMDRTGDKVDGPKLRREFLHEDGEIYVPEKDPVRGPQVMAAVQKLGQLLATKYQGYDANGHYNKVHEDLMLPFDEFLALNGCEAARDLWINPFTAFGYGHFDNVPAAYVLKYLDFVTMMSFAKGDLWTWADGTQAMFEHLNATLEHPAERNVDITRITREDGKVHIHTTDWDRESDVLVLTVPLEKFLDYSDADDDEREYFSKIIHQQYMVDACLVKEYPTISGYVPDNMRPERLGHVMVYYHRWADDPHQIITTYLLRNHPDYADKTQEECRQMVLDDMETFGHPVEKIIEEQTWYYFPHVSSEDYKAGWYEKVEGMQGRRNTFYAGEIMSFGNFDEVCHYSKDLVTRFFV | soluble
MSIYLTAMKNYLEQQNSLNSSKPKALILVAGATGGAQEGFQALERLRESYEIIVVASQAALDLYGEENLKSLTGTAKIYQGKEFKIYDFLKVVTIVFLPVVSSNLVGKLAHGIYDEPLASLIFHAKLAGKPVIGVVDGALPDGDGFKSRGFTNPPPGLVKLINENIEKLRAQEIYLYKGKTILEKLSPYLGPQTAETSVVSSKTGVTLNKRVITREDLLELANQTITVSQKTIITDLAREYAVQNNIKINFAE | not soluble
MSKDTKQEDNAPTPVTTTPMALNPKTVEKTMFVNKEVLPKMKKIDPEEPGHLPLNEKFMKRWLIEGLIGKGGYGEIYLALDVVRGEEVAIKVEPKKRRGKLAKRMILEQHVLAKMQGKPHVPMIYGSGHAEKYNFIIMQILSINVGDIKKSSPNKKLSQCSVGRIIHQVIAALQDLHETGYVHRDVKPANMCFGIFPHSRHTLILLDFGLVRRYKMESGEWREPRLRAGFRGTTRYVSIRVHRRCEQSPYDDLVSVMYTAYELLAGELPWKHLEKSEEVVQLKEVMTENGINPELFQGDKSVLIDFFKQVSEMDPMKEPCYEKLIECIKVLYAPKVLTDPYEWEESSKGQDEVSEENTNSK | soluble
MSKENIVTRENTAVSENAVSEPTVNNDVGASATNSVTHPAFTLNVRPDNIGIITIDVVGDKVNTLKAEFADQIATILQQAHALPKLQGLVIVSGKPDSFIAGADITMIAACRTAHDARVLAQKGQSILAQIAAFPVPVVAAIHGACLGGGLELALACHSRICSLDDKTVLGLPEVQLGLLPGSGGTQRLPRLVGVSKALDMILTGKQIRPRQALKMGLVDDVVPRDILLDVAIQRAKAGWLNRRALPWQERLLSGPLGKALLFRIVRKKTLAKTRGHYPAAERIIDVVRKGLDQGGPSGYEAEARAFGELAMSPQSAALRSLFFATTSLKKETGSAATARAIHRVGVLGGGLMGGGIANVTATRAGLPVRIKDINPQGINQALKYTWDALGKRVRSKRMRPTEQQRQMMLISGSTDYRGFERVDIVVEAVFEDLSLKQQMVADIERFGAAHTIFASNTSSLPISQIAALAQRPEQVIGLHYFSPVDKMPLVEVIPHEKTSEETIATTVALARKQGKTAIVVADRAGFYVNRILAPYINEAARCLLDGEPIESVDNALVDFGFPVGPMMLLDEVGIDVATKIMPILVEQLGPRFAAPPSFDVILKDGRKGRKNGRGFYLYSNPTKNSSPTKNGNSPAKRNSFKWRKNKVKPVDASIYTLLGVTPKAHLGAGVITQRCTMLMLNEAVRCLDESIIRNPRDGDIGAVFGIGFPPFLGGPFRYLDSLGADKVVQALRLLVQQYGERFEPCQRLVTMAEQQQQFYPVDANIDEVTDVAS | not soluble
MSKHVNWSGVFPAVTTQFNADFSVNLEETHTVISNLVRDGVSGLVVCGSVGENTSLTIEEKMAVTEVAKDASGGRVPVICGIAEFTSAGAAKVAKAVERVGVDGIMVMPALVYSSKPHETAEHFRSVASGTDLPVMVYNNPPIYRNDVTPDILVSLADCENIVCFKDSSGDTRRFIDVRNQVGERFILFAGLDDVVLESVAVGAQGWISGMSNVFPKEGETIFRLARAGRFAEAMPIYEWLMPILHLDARPDLVQCIKLCEQLAGRGSALTRPPRLALRGADREHVERIMAKALASRPALPDVGL | not soluble
MSKIIGSDRVKRGMAEMQKGGVIMDVVNAEQARIAEEAGAVAVMALERVPSDIRAAGGVARMANPKIVEEVMNAVSIPVMAKARIGHITEARVLEAMGVDYIDESEVLTPADEEYHLRKDQFTVPFVCGCRNLGEAARRIGEGAAMLRTKGEPGTGNIVEAVRHMRQVNSEVSRLTVMNDDEIMTFAKDIGAPYEILKQIKDNGRLPVVNFAAGGVATPQDAALMMELGADGVFVGSGIFKSEDPEKFAKAIVQATTHYQDYELIGRLASELGTAMKGLDINQLSLEERMQERGWMAGDPLEHHHHHH | not soluble
MSKIKIAIIGNGMVGHRFIEDLLDKADKDQFDITVFCEEPRIAYDRVHLSSYFSHHTAEELSLVREGFYEKQGVKVLVGERAITINRAEKVIHSNSGRSLYYDKLVMATGSYPWIPPIKGSEGQDCFVYRTIEDLNAIEACTRRSKRGAVIGGGLLGLEAAGALKSLGVETHVIEFAPVLMAEQLDPMGGDQLRQKIERMGVRVHTGKNTQEIVHSGQNSRKTMLFADGTQLEVDFIVFSTGIRPQDKLANQCGLATARRGGIAINDYCQTSDPDVYAIGECASWQERTFGLVAPGYKMAQVAADHLLGRENAFLGADMSAKLKLLGVDVGGIGDAHGRTEGARSYVYLDESKEIYKRLVVSADNKTLLGAVLVGDTTDYGNLLQLALNNITLPENPDSLILPAHAGNKPTIGVDSLPDSAQICSCFDVTKGDIIRAIGQGCQTVAALKSATKAGTGCGGCIPLVTQVLNAELSKQGIEVNNHLCEHFAYSRQELYHLIRVEGIKTFTELREKYGKGYGCEVCKPTVGSLLASCWNEYVLEPQHTPLQDTNDNFLGNIQKDGTYSIIPRSPGGEITPDGLLVVGQIAKEYNLYTKLTGSQRIGMFGAQKDDLPAIWARLIDAGFETGHAYAKALRMAKTCVGSTWCRFGVGDSVGFGVALEHRYKGIRAPHKIKFGISGCTRECAEAQGKDVGIIATENGWNLYVCGNGGMKPRHADLLAADLDEETLMRYLDRFMMFYIRTADKLQRTSVWLESLEGGIRYLQLVILEDKLGINDQLEAEIARLRDKVACEWKATVENPAAQVRFAHFINSSLRDPNVQVVREREQHRPARPDERIPVRVLELEDNA | not soluble
MSKKIILITGASSGFGRLTAEALAGAGHRVYASMRDIVGRNASNVEAIAGFARDNDVDLRTLELDVQSQVSVDRAIDQIIGEDGRIDVLIHNAGHMVFGPAEAFTPEQFAELYDINVLSTQRVNRAALPHMRRQKHGLLIWISSSSSAGGTPPYLAPYFAAKAAMDAIAVQYARELSRWGIETSIIVPGAFTSGTNHFAHSGVPDDHARQAEYEAGPNAGLGEEIKKAFAAIVPPDADVSLVADAIVRVVGTASGKRPFRVHVDPAEDGADVGFSVLDRLRAEMLHRVGLSDLLKPRALA | soluble
MSKKIRNTEVDHLFDAILTLENKEECYTFFEDVCTVNELLSISQRYEVAKMLREGKTYLDISNATGASTATISRVNRSLNYGNDGYDMVLERVLKKDE | not soluble
MSKLELLPAVDVRDGQAVRLVHGESGTETSYGSPLEAALAWQRSGAEWLHLVDLDAAFGTGDNRALIAEVAQAMDIKVELSGGIRDDDTLAAALATGCTRVNLGTAALETPEWVAKVIAEHGDKIAVGLDVRGTTLRGRGWTRDGGDLYETLDRLNKEGCARYVVTDIAKDGTLQGPNLELLKNVCAATDRPVVASGGVSSLDDLRAIAGLVPAGVEGAIVGKALYAKAFTLEEALEATSLEPG | soluble
MSKPIEIEIRRAPVLGSSMAYRETGAQDAPVVLFLHGNPTSSHIWRNILPLVSPVAHCIAPDLIGFGQSGKPDIAYRFFDHVRYLDAFIEQRGVTSAYLVAQDWGTALAFHLAARRPDFVRGLAFMEFIRPMPTWQDFHHTEVAEEQDHAEAARAVFRKFRTPGEGEAMILEANAFVERVLPGGIVRKLGDEEMAPYRTPFPTPESRRPVLAFPRELPIAGEPADVYEALQSAHAALAASSYPKLLFTGEPGALVSPEFAERFAASLTRCALIRLGAGLHYLQEDHADAIGRSVAGWIAGIEAVRPQLAAVD | soluble
MSKRNTQLRRHAISNMVNELGEVSVDELAQKFETSEVTIRKDLASLEKNGQLLRRYGGAIAIPTEVIHEELSSNVSTRKLSLAKAAASLIRDHNRIVIDSGSTTAALIQQLNDKRGLVVMTNSLHVANALNELESEPTLLMTGGTWDTHSESFQGKVAESVLRAYDFDQLFIGADGIDLERGTTTFNELVGLSKVMAEVSREVIVMIESEKIGRKIPNLELAWHQIDVLVTDADIQPEHKVQIEQHGVKVICALEHHHHHH | soluble
MSKSESPKEPEQLRKLFIGGLSFETTDESLRSHFEQWGTLTDCVVMRDPNTKRSRGFGFVTYATVEEVDAAMNARPHKVDGRVVEPKRAVSREDSQRPGAHLTVKKIFVGGIKEDTEEHHLRDYFEQYGKIEVIEIMTDRGSGKKRGFAFVTFDDHDSVDKIVIQKYHTVNGHNCEVRKALSKQEMASASSSQRGR | soluble
MSKSPDAFRTISEVAEWLGVQAHVLRFWESKFNQVKPVKRAGGRRYYRPADMQLLGGIKKLLHDDGMTIKGVQKLLREQGVAHVAEQSQD | not soluble
